From patent US20200347130A1 (JIANGSU HENGRUI MEDICINE, published 2020)

T1: CD96 epitope peptide #3 IAVYHPQYGFYCAYGRPCES (47-66) (human)
T1 construct: also called 3# peptides; #3 antigen fragment
T1 peptide: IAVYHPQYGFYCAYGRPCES

T2: Biotinylated CD96 antigen (human, UniProt P40200-2 22-503, limits assumed, biotinylated)
T2 sequence (looked up): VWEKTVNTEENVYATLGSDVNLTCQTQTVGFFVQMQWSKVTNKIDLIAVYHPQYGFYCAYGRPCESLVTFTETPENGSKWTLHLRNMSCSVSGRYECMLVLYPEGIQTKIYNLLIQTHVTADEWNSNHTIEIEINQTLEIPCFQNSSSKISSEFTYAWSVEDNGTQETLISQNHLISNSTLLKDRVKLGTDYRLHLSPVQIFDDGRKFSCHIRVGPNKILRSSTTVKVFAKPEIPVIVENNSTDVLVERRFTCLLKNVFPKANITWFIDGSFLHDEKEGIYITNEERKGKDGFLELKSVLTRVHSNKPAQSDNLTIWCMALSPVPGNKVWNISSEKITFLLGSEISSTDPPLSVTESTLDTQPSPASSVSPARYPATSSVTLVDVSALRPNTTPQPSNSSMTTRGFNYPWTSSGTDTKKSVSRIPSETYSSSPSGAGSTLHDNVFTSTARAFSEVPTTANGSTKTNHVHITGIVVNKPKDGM


Experiments:
[1] = target: T1, CD96 epitope peptide #3 …; assay: FACS on CD96-CHOs cells after pre-incubation of the antibody with the peptide; a fall of the MFI against antibody alone shows that the peptide occupies the antibody
Protocol: In order to verify that the binding of the antibody to CD96 protein polypeptide fragment is specific, we designed the following FACS for verification. While polypeptide fragments were incubated and bound to an antibody, epitopes of the antibody binding to CD96 protein were occupied, and then the signal of the antibody binding to CD96 protein on the cell surface decreased. The specific experimental methods are as follows:
The antibody samples were diluted to 1.2 μg/mL with 1% BSA, and the peptides were diluted to 40 μg/mL synchronously. The peptides and antibody sample were mixed at a volume ratio of 1:1 and pre-incubated at 37° C. for 90 minutes. CD96-CHOs cells were collected and washed once in PBS, then dispensed according to 0.5×10⁶/test. The cells with 100 μL of peptide-antibody mixture were resuspended, incubated at 4° C. for 1 hour, followed by washing 3 times with 1% BSA. Cells were resuspended with 100 μL dilution (1:400, 1:40, 1:100) of Alexa Fluor 488 anti-human IgG Fc (thermofisher, A-11013), PE goat anti-mouse IgG (Biolegend, Cat No. 405307), or PE goat anti-Rat IgG (Biolegend, Cat No. 405406), incubated at 4° C. for 40 minutes, followed by washing 3 times with 1% BSA. The cells were resuspended with 200 μL of 1% BSA, MFI of each sample was read on a flow cytometer BD FACSCanto II, and the data were analyzed with GraphPad Prism 5 to make a histogram. MFI difference between the sample without polypeptides incubation and the one incubated with polypeptides was used to determine the antigenic epitope recognized by the CD96 antibody.

[2] = target: T2, Biotinylated CD96 antigen; assay: competition ELISA, antibody B premixed with biotinylated CD96; competitor (coated antibody A): ch1720
Protocol: (§1) Competitive assays of different antibodies binding to CD96 protein were used to classify binding epitopes of the antibodies. The specific experimental methods are as follows:
(§2) Antibody A was diluted to a concentration of 2 μg/ml with PBS buffer (Shanghai Yuanpei Biotechnology Co., Ltd. Cat No. B320), pH 7.4, added to a 96-well microtiter plate (Corning, Cat No. CLS3590-100EA) at a volume of 50 μl/well, and coated at 4° C. overnight. After discarding the liquid, 250 μl/well of 5% skim milk (BD skim milk, Cat No. 232100) blocking solution diluted with PBS was added, and the plate was incubated at 37° C. for 3 hours. After blocking, the blocking solution was discarded, and the plate was washed 5 times with PBST buffer (pH 7.4 PBS containing 0.05% tween-20) and stored for later use. Antibody B was diluted to 40 μg/ml and 8 μg/ml with 1% BSA, and Biotinylated CD96 antigen was simultaneously diluted to 4 μg/mL. Subsequently, antibody B and antigen were mixed in a 1:1 volume ratio, pre-incubated at 37° C. for 45 minutes, added into the enzyme plate coated with antibody A, thus incubating the plate in an incubator at 37° C. for 1.5 hours. After incubation, the plate was washed for 5 times with PBST, and 50 μl/well of HRP-labeled streptavidin (Sigma, Cat No. 52438) diluted with sample dilution was added, followed by incubating the plate at 37° C. for 1 hour. After washing the plate 5 times with PBST, 50 μl/well of TMB chromogenic substrate (KPL, Cat No. 52-00-03) was added for color development, followed by adding 50 μl/well of 1M H₂SO₄ to stop the reaction. The absorption value was read at 450 nm with a NOVOStar microplate reader, and the OD value was used to determine whether A and B CD96 antibodies compete with each other. Antibodies that compete with each other fall into the same class of antibodies, otherwise belong to different classes of antibodies (see FIG. 3 and Table 18).

[3] = target: T2, Biotinylated CD96 antigen; assay: competition ELISA, antibody B premixed with biotinylated CD96; competitor (coated antibody A): h1719-014
Protocol: as §1, §2

[4] = target: T2, Biotinylated CD96 antigen; assay: competition ELISA: antibody B pre-incubated with biotinylated CD96 antigen, added to a plate coated with antibody A, HRP-streptavidin, OD450; competitor: coated h1719-014 (named by the legend paragraph 84)
Protocol: as §1, §2

| binding result [1] | competition (percent) [2] | competition (percent) [3] | IC50 (read off the curve) [4] | Binder |
| --- | --- | --- | --- | --- |
| binds | – | – | – | ch1719 (antibody, human IgG4 S228P, kappa, V domains shown, also called chimeric antibody corresponding to m1719) VH: QVQLKESGPGLVAPSQSLSITCTVSGFSLISYGVSWVRQPPGKGLEWLGVIWGDGNTNYHSVLISRLSIRKDDSKSQVFLKLNSLQTDDTATYYCAKNNYYGSRYGYPMDYWGQGTSVTVSS VL: DIVMTQSHKFMSTSVGDRVSITCKATQDVGTAVAWYQQKPGHSPKLLIYWASTRHTGVPERFTGSGSGTDFTLTIDNVQSEDLADYFCQQYGSSVLTFGAGTKVELRR |
| binds | – | – | – | ch1721 (antibody, human IgG4 S228P, kappa, V domains shown, also called chimeric antibody corresponding to m1721) VH: QVQLKESGPGLVAPSQSLSITCTVSGFSLISYGVNWVRQPPGKGLEWLGVIWGDGSTNYHSALISRLSISKDDSKSQVFLNLNSLQTDDTATYYCAKNYFYGSRYGYAMDSWGQGISVTVSS VL: DIQMTQSPASLSAAVGETVTITCRASENIYSSLAWYQQKQGKSPQLLVYNAKTLIETVASRFSGSGSGTQYSLKINSLQPEDFGSFYCQHHYGTPYTFGGGTKLEIKR |
| – | -11.5% | 8.5% | – | h1722-010 (antibody, V domains shown, Only variable regions are tied to this name; also called M722-010) VH: EVQLVQSGAEVKKPGSSVKVSCKASGGTFSDYWMHWVRQAPGQGLEWIGMLHPNSGTTSFNEKFKIRVTITADKSTSTAYMELSSLRSEDTAVYYCASDYSGPFAYWGQGTLVTVSS VL: DIQLTQSPSSLSASVGDRVTITCSASSSVNYIHWYQQKPGKAPKRWIFDTSKLASGVPSRFSGSGSGTDYTLTISSLQPEDFATYYCQQWRSNPLTFGQGTKLEIK |
| – | 103% | 94.8% | ~0.4 nM | h1718-012 (antibody, V domains shown, Only variable regions are tied to this name) VH: EVQLVQSGAEVKKPGASVKVSCKASGYTITDYNMNWVRQAPGQRLEWIGVINPSYGITDYNQNFKDRVTITVDTSASTAYMELSSLRSEDTAVYYCAIQLRLPGYFDVWGQGTTVTVSS VL: DIQMTQSPSSLSASVGDRVTITCKASQDINQYLNWFQQKPGKAPKTLIYRANRLVDGVPSRFSGSGSGQDYTLTISSLQPEDFATYYCLKYDEFPYTFGGGTKVEIK |
| – | 100% | 92.3% | ~1 nM | ch1720 (antibody, human IgG4 S228P, kappa, V domains shown, also called chimeric antibody corresponding to m1720) VH: EFQLQQSGPELVKPGASVKISCKASAYSLTDYNMNWVKQSNGKSLEWIGVINPSYGISSYNQKFKGKATLTVDQSSSTAYMHLNSLTSEDSAVYYCARQLRLPGYFDVWGTGTTVTVSS VL: DIKMTQSPSSKNASLGERVTITCKASQDINSYLNWFQQKPGKSPKTLIYRASRLVDGVPSRFSGSGSGQDYSLTISSLEYEDMGIYYCLKYDEFPYTFGGGTKLEIKR |
| binds | – | – | – | ch1718 (antibody, human IgG4 S228P, kappa, V domains shown, also called chimeric antibody corresponding to m1718) VH: EFQLQQSGPELVKPGASVKISCKASAYSITDYNMNWVKQSNGKSLEWIGVINPSYGITDYNQNFKDKATLTVDQSSSTAYMQLNSLTSEDSAVYYCAIQLRLPGYFDVWGTGTTVIVSS VL: DIKMTQSPSSMYASLGERVTITCKASQDINNYLNWFQQKPGKSPKTLIYRANRLVDGVPSRFSGSGSGQDYSLTISSLEYEDMGIYYCLKYDEFPYTFGGGTKVEIKR |
| – | – | – | ~0.4 nM | h1719-010 (antibody, V domains shown, Only variable regions are tied to this name) VH: EVTLKESGPVLVKPTETLTLTCTVSGFSLSSYGVSWVRQPPGKGLEWLGVIWGDGNTNYHSVLISRLTISKDTSKSQVVLTLTNMDPVDTATYYCAKQNYYGSRYGYPIDYWGQGTTVTVSS VL: DIQMTQSPSSVSASVGDRVTITCKATQDVGTAVAWYQQKPGKAPKLLIYWASTRHTGVPSRFSGSGSGTDFTLTISSLQPEDFATYYCQQYGSSVLTFGGGTKVEIK |
| – | 67.7% | 100% | – | h1719-014 (antibody, V domains shown, Only variable regions are tied to this name; also called M719-014) VH: EVTLKESGPVLVKPTETLTLTCTVSGFSLSSYGVSWVRQPPGKGLEWLGVIWGDGNTNYHSVLISRLTISKDTSKSQVVLTLTNMDPVDTATYYCAKNYYYGSRYGYPLDYWGQGTTVTVSS VL: DIQMTQSPSSVSASVGDRVTITCKATQDVGTAVAWYQQKPGKSPKLLIYWASTRHTGVPERFSGSGSGTDFTLTISSLQPEDFATYFCQQYGSSVLTFGGGTKVEIK |
| – | 92.6% | 96% | ~0.4 nM | h1721-003 (antibody, V domains shown, Only variable regions are tied to this name; also called M721-003) VH: EVTLKESGPVLVKPTETLTLTCTVSGFSLSSYGVNWIRQPPGKALEWLGVIWGDGSTNYHSALISRLTISKDTSKSQVVLTLTNMDPVDTATYYCAKNYFYGSRYGYAMDSWGQGTTVTVSS VL: DIQMTQSPSSLSASVGDRVTITCRASENIYSSLAWYQQKPGKAPKLLIYNAKTLIEGVPSRFSGSGSGTDFTLTISSLQPEDFATYYCQHHYGTPYTFGGGTKVEIK |
